Data published in PMC8989981, “Negative feedback of SNRK to circ-SNRK regulates cardiac function post-myocardial infarction” (Cell Death and Differentiation, 2021).

Target: the molecule itself
Assay: native gel or EMSA; Native-PAGE of total protein from NRCMs, blotted with anti-NOVA1

B1: NOVA1 (NOVA alternative splicing regulator 1) (natural protein, rat (endogenous in NRCMs), UniProt Q80WA4 1-474, looked up)
chain: MAAAPIQQNGTHTGVPIDLDPPDSRKRPLEAPPEAGSTKRTNTGEDGQYFLKVLIPSYAAGSIIGKGGQTIVQLQKETGATIKLSKSKDFYPGTTERVCLIQGTIEALNAVHGFIAEKIREMPQNVAKTEPVSILQPQTTVNPDRIKQVKIIVPNSTAGLIIGKGGATVKAIMEQSGAWVQLSQKPDGINLQERVVTVSGEPEQNRKAVELIIQKIQEDPQSGSCLNISYANVTGPVANSNPTGFPYANTAEVLPTAAAAAGLLGHANLAGVAAFPAVLSGFTGNDLVAITSALNTLASYGYNLNTLGLGLSQAAATGALAAAAASANPAAAAANLLATYASEASASGSTAGGTAGTFALGSLAAATAATNGYFGAASPLAASAILGTEKSTDGSKDVVEIAVPENLVGAILGKGGKTLVEYQELTGARIQISKKGEFVPGTRNRKVTITGTPAATQAAQYLITQRITYEQGVR
notes: NOVA1 (NOVA alternative splicing regulator 1), rat, as present in neonatal rat cardiomyocytes; also called protein NOVA1; source: endogenous, NRCMs (neonatal rat cardiomyocytes), in lysate / total protein
B1 was tested, and the “stoichiometry N” value was 2.
